Measured values: the RNAGym collection of RNA variant scans (doi:10.1073/pnas.2313332121)

B1: TPR t1 (parent)
chain: GACCAAUCUGCCCUCAGAGCUCGAGAACAUCUUCGGAUGCAGAGGAGGCAGGCUUCGGUGGCGCGAUAGCGCCAACGUCCUCAACCUCCAAUGCAUCCCACCACAUGAUGAUGCCUGAAGAGCCUUGGUUUUUUG

Variants of: B1
Test: polymerase ribozyme fitness, log enrichment relative to wild type (log ratio); higher = more active; in vitro selection for triplet polymerase activity
Procedure, shortened: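 Mutant libraries for each subunit of a heterodimeric triplet polymerase ribozyme were made by PCR and then transcribed. Each library underwent one round of in vitro selection in triplicate: annealing with a biotinylated primer, the partner subunit and triplets, frozen incubation at −7 °C, gel excision of extended constructs, streptavidin-bead capture and RT-PCR. Input and output libraries were Illumina-sequenced, and only genotypes with ≥10 input reads and ≥1 read per output were kept. Fitness is the logarithm, base 2, of genotype enrichment over wild-type enrichment, computed from inverse-variance-weighted replicate averages.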

Row | Variant | polymerase ribozyme fitness (log ratio)
1 | C40A C89G C94A | -4.16
2 | G39C G45A | -0.954
3 | G39U G113A | -1.25
4 | A41C C72G | -1.5
5 | A41C C70A A118U | -2.8
6 | A41C C70A | -3
7 | A41C G63C | -2.4
8 | A41C G48A G60U | -1.76
9 | C40U C56G C72A C76A | -2.93
10 | C40A C79G G93C G110A U133A | -5.44
11 | A41G A50C G77A U116C | -3.42
12 | C40A A43U G44C G71U C82A | -4.65
13 | C40A U92G | -2.37
14 | G39C U54A A74G | -0.531
15 | A41C G48C U78G A111G | -1.93
16 | G39U C62U G117U | -3.18
17 | C40U G44U C49U C53A A84C C86G G113C U125C | -3.99
18 | C40A G60A C85G | -2.93
19 | A41U C53A C115A | -1.03
20 | G39C C86U | -2.09
21 | G39U C88U A121G | 0.804
22 | G39U C49A C72A G93C A95C C115U | -5.1
23 | C40G G57C | -1.56
24 | C40G U55G G71A C85A | -3.12

Row | Variant | polymerase ribozyme fitness (log ratio)
25 | A41G G51U C114G | -5.83
26 | G39U G45C U87A C114U | -6.43
27 | G39C C97A | -5.8
28 | A41G G113A C124A | -0.366
29 | A41C C80U C115U | -3.59
30 | C40U U78G C85G | -2.08
31 | A41U C70U A84U U116C C124U U130A | -5.57
32 | C40A C62A A118G | -2.61
33 | A41G C64U A91U U106A G110A | -5.83
34 | C40U G61U | -0.267
35 | A41G A91U | -1.63
36 | C40A G93A A111C | -1.04
37 | C40U C72A | -0.504
38 | C40U C72U | -1.69
39 | C40U A100G | -4.16
40 | C40G G44C C73U U125G | -2.93
41 | C40G A74G C86A | -1.94
42 | C40A G135U | -2.63
43 | G39U G61A C101U G117A A118G U125A | -0.872
44 | C40U C97U U106A C115A | -1.86
45 | C40A A105G | -4.43
46 | C40G C72U C102U U116G C124U | -4.29
47 | A41U C56U U78G | -1.47
48 | C40A G42A C56G C72A A84C | -4.52

Row | Variant | polymerase ribozyme fitness (log ratio)
49 | G39U C53A C82A C124G | 1.35
50 | C40G A100C | -2.29
51 | A41G C102U | -3.18
52 | G39U A68G C70U A121U | -2.23
53 | G39U G48U | -1.59
54 | A41C G44C | -1.48
55 | A41U G52A U59C A108G C114G U125G | -5.99
56 | C40A C79A | -2.9
57 | A41C G69U U92C | -0.226
58 | G39U C53G C123U | 1.06
59 | C40A A46U C79G C104U | -6.75
60 | C40G C53U A121C | 1.26
61 | C40G G52A C62U G128C | -3.34
62 | A41C C89G | -3.37
63 | A41C C89U | -0.432
64 | A41G A46U C123U | -2.51
65 | C40A G47A G63U | -4.41
66 | A41G C73G U87C C104U C115A C123G G135A | 0.00105
67 | C40U G135U | -1.59
68 | C40G A43C G69U G120C | -0.592
69 | C40G C56U | -1.79
70 | A41C G42C U106A | -2.3
71 | G39U U78C G120A | 0.169
72 | A41C C101A G120C | -1.45

Row | Variant | polymerase ribozyme fitness (log ratio)
73 | A41U C99U C124U | -5.19
74 | C40A U78C U92A C115U | -4.02
75 | G39U G61U U106A | -0.274
76 | A41C C88U U92C C104U A111C U125G U132C | -4.35
77 | G39U G60A C76G | -3.27
78 | A41C G135U | -1.68
79 | A41C C114G | -1.19
80 | G39U G61C | -1.66
81 | G39C C56G A111C G128A | -3.6
82 | A41U C115U G127A | -3.9
83 | C40A C114G | -3.8
84 | C40U G45U G127C | -3.96
85 | G39C U78A | -0.87
86 | A41U A68G | -5.2
87 | C40G C56U A100U C101G | -2.81
88 | C40U A95U G117C A121C | -5.49
89 | G39U C101G | -3.29
90 | A41U G63U | -2.33
91 | C40U U55G U78G U92A G110C G122A C124G | -7.14
92 | A41C G60C C101G U126G U132C | -4.76
93 | C40U A41C C56A C114A | -2.89
94 | A41G G63U | -2.37
95 | A41G A68G C82U | -5.28
96 | C40A C49U U59A G60A G117C | -7.16

Row | Variant | polymerase ribozyme fitness (log ratio)
97 | G39U G52A | -1.4
98 | G39U G52U | -1.9
99 | A41U G48U C76A | -1.72
100 | C40G C70A | -3.86
101 | A41U G60U U78A A95G U126A | -4.53
102 | G39U G44U C53G C62A C98U U112A U129C U130A | -5.78
103 | A41U A43U G69C G77C G93A C124G U131A | -1.81
104 | C40G C104U G113C G122A | -3.43
105 | C40U G51C G57U C89U G120U | -3.44
106 | C40U G63A | -1.95
107 | C40U G63U | -1.68
108 | A41U C53G C62G G113C | -6.56
109 | C40G G71U C79A | -2.32
110 | A41G G63A A75G C85A U133A | -3.04
111 | A41U C70A U78G C123U | -3.32
112 | C40G G61C G69U | -2.88
113 | C40U A43C G93C C115A | -2.74
114 | C40U C64U A90C | -1.97
115 | C40U G47A | -2.33
116 | G39U G113A U132A | -2.47
117 | G39U C70U A103C C114U A119U G120A U130A | -5.71
118 | A41G C56A | -1.81
119 | C40U U92G C98U G113U G117U | -6.95
120 | G39U G120A | -0.0767

Row | Variant | polymerase ribozyme fitness (log ratio)
121 | C40U A41C G48U C56U G58C | -1.43
122 | G39U G128C | -3.25
123 | G39C C115U G120C | -1.04
124 | A41U C89U | -1.32
125 | C40G C64G C85A U112C | -6.02
126 | C40A C64U | -2.19
127 | A41G G61C A95C C101U U106A | -3.41
128 | A41C G63U G77C A100U | -4.24
129 | C40G A90C U106C U116G A119G U125G | -3.17
130 | G39U A50U | -1.79
131 | C40A C124U | 0.897
132 | C40U G60C G135U | -1.79
133 | G39U G45A | -2.22
134 | A41C G42U G71A U81C | -4.72
135 | C40U C73U A75C | -0.514
136 | C40U C104A A118U | -1.26
137 | A41U G63A C86G C101U | -4.01
138 | A41C G77C C82U | -1.51
139 | C40U G51U C53U G61U G113U | -6.53
140 | A41U C53U C73A G120U | -2.14
141 | C40G G57U A91C | -3.44
142 | A41C G107A | -5.61
143 | C40U U55C C72U U96C A100C A119U G127U | -4.37
144 | G39C C101A | -1.69

Row | Variant | polymerase ribozyme fitness (log ratio)
145 | A41U C89U C123A | -1.59
146 | A41C G51C | -6.13
147 | C40G G113A | -0.856
148 | A41U G61A | -1.07
149 | A41C G71U C98U C114A | -5.3
150 | A41G A68G | -3.96
151 | G39U C123G | 0.0216
152 | G39U C123U | 0.845
153 | G39C C98A | -5.08
154 | C40U G58C | -0.23
155 | C40U G113U | -2.53
156 | C40U C70A G128A | -4.95
157 | C40U G113A C114G | -2.13
158 | C40G U92G | -2.95
159 | C40G U92C | -1.63
160 | G39C U55A C56A G63U A121U | -4.47
161 | A41U G57U | -1.23
162 | C40A A50G G71U C85U | -2.76
163 | G39U A74G G110C A111G | -5.64
164 | G39U G110C A121C | -4.8
165 | C40A G61U G93U A100C | -1.18
166 | C40G G61U C72G G117C | -4.91
167 | G39C C88U G135U | -2.39
